The record followed here is the supplement of paper PMC9112550, “Optimization of the antimicrobial peptide Bac7 by deep mutational scanning” (BMC Biology, 2022).
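Further: peptides expressed intracellularly from a pBAD plasmid library in pooled LB shake-flask culture, induced with 0.3% L-arabinose, DNA abundance read by NGS, three biological replicates, DESeq2 with apeglm shrinkage.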

This data set deals with Escherichia coli TOP10. In words: shrunken log2 fold change of peptide-encoding DNA abundance (4.5 h post-induction vs induction); higher = less antimicrobial activity (less host growth inhibition). The settings on record: time post-induction: 4.5 h; library: site-saturation at positions 5, 18, 19, 20.
Take RRIRNRPPRLPRPRPRPRISPRP: the “shrunken log2 fold change” value is -0.408.
The result for RRIRKRPPRLPRPRPRPCWCPRP reads -0.0214; that for RRIRFRPPRLPRPRPRPRHKPRP, 0.202.
As for RRIRWRPPRLPRPRPRPHPLPRP, the “shrunken log2 fold change” value is -0.0381.
Consider RRIRFRPPRLPRPRPRPCHVPRP, for which the “shrunken log2 fold change” value turned out to be 0.0269.
The same measure for RRIRNRPPRLPRPRPRPTRAPRP: 0.683; for RRIRHRPPRLPRPRPRPMTVPRP: 0.055; for RRIRMRPPRLPRPRPRPGWWPRP: -0.026.
As to RRIRSRPPRLPRPRPRPDQIPRP, the “shrunken log2 fold change” value was 0.0424.
The same measure for RRIRNRPPRLPRPRPRPLTLPRP: -0.358; for RRIRMRPPRLPRPRPRPQKDPRP: 0.0308; for RRIRMRPPRLPRPRPRPVMDPRP: 0.025.
Regarding RRIRCRPPRLPRPRPRPKLEPRP, the “shrunken log2 fold change” value is -0.125.
The result for RRIRGRPPRLPRPRPRPSGQPRP reads 0.538; that for RRIRARPPRLPRPRPRPHMIPRP, 0.028.
Take RRIRFRPPRLPRPRPRPLVDPRP: the “shrunken log2 fold change” value was determined as 0.0316.
On to RRIRQRPPRLPRPRPRPCRVPRP, for which the “shrunken log2 fold change” value is -0.306.
Take RRIRQRPPRLPRPRPRPIVKPRP: the “shrunken log2 fold change” value is -0.108.
The result for RRIRIRPPRLPRPRPRPPFEPRP reads -0.0183.
The result for RRIRMRPPRLPRPRPRPICAPRP reads 0.486; that for RRIRVRPPRLPRPRPRPMWIPRP, 0.00541.
On to RRIRNRPPRLPRPRPRPPSGPRP, for which the “shrunken log2 fold change” value is -0.0646.
In the case of RRIRDRPPRLPRPRPRPKCRPRP, the “shrunken log2 fold change” value was -0.00674.
Take RRIRMRPPRLPRPRPRPCHGPRP: the “shrunken log2 fold change” value is 0.241.
The result for RRIRTRPPRLPRPRPRPAVVPRP reads 0.0328; that for RRIRCRPPRLPRPRPRPYRCPRP, -0.282.
The result for RRIRARPPRLPRPRPRPIWCPRP reads 0.00499.
With RRIRPRPPRLPRPRPRPERAPRP, the “shrunken log2 fold change” value worked out at 1.17.
The same measure for RRIRMRPPRLPRPRPRPTDNPRP: 0.188.
The same measure for RRIRCRPPRLPRPRPRPMYQPRP: -0.265.
Turning to RRIRIRPPRLPRPRPRPCPYPRP, the “shrunken log2 fold change” value was -0.269.
On to RRIRGRPPRLPRPRPRPIWTPRP, for which the “shrunken log2 fold change” value turned out to be 0.352.
The same measure for RRIRWRPPRLPRPRPRPQYMPRP: -0.164.
On to RRIRPRPPRLPRPRPRPSMMPRP, for which the “shrunken log2 fold change” value is -0.412.
The result for RRIRWRPPRLPRPRPRPDLFPRP reads 0.133.
For RRIRSRPPRLPRPRPRPKWFPRP, the “shrunken log2 fold change” value is -0.0561.
With RRIRARPPRLPRPRPRPAWCPRP, the “shrunken log2 fold change” value is 1.28.
For the sequence RRIRERPPRLPRPRPRPQITPRP, the “shrunken log2 fold change” value is -0.778.
Consider RRIRSRPPRLPRPRPRPPNRPRP, for which the “shrunken log2 fold change” value was determined as 0.238.
Regarding RRIRPRPPRLPRPRPRPLVFPRP, the “shrunken log2 fold change” value came out at 0.257.
The result for RRIRQRPPRLPRPRPRPCKAPRP reads -0.218.
The result for RRIRTRPPRLPRPRPRPTDMPRP reads -0.0264; that for RRIRRRPPRLPRPRPRPPYAPRP, 0.774; that for RRIRMRPPRLPRPRPRPAIAPRP, 1.25.
As for RRIRMRPPRLPRPRPRPSECPRP, the “shrunken log2 fold change” value was 0.0809.
The result for RRIRWRPPRLPRPRPRPPRSPRP reads 0.733.
The result for RRIRVRPPRLPRPRPRPSLWPRP reads 0.183.
In the case of RRIRWRPPRLPRPRPRPYSRPRP, the “shrunken log2 fold change” value was -0.0788.
The result for RRIRCRPPRLPRPRPRPPVFPRP reads 0.0601.
The same measure for RRIRARPPRLPRPRPRPSLGPRP: 0.188; for RRIRMRPPRLPRPRPRPPPEPRP: 1.82.
The same measure for RRIRYRPPRLPRPRPRPFCVPRP: -0.264; for RRIRTRPPRLPRPRPRPGVIPRP: 0.0978.
For the sequence RRIRVRPPRLPRPRPRPQNEPRP, the “shrunken log2 fold change” value was -0.303.
Consider RRIRTRPPRLPRPRPRPSSPPRP, for which the “shrunken log2 fold change” value was -0.312.
For the sequence RRIRTRPPRLPRPRPRPWLIPRP, the “shrunken log2 fold change” value came to 0.00287.
For the sequence RRIRLRPPRLPRPRPRPWKLPRP, the “shrunken log2 fold change” value is -0.00968.
The same measure for RRIRHRPPRLPRPRPRPKQIPRP: -0.0133.
On to RRIRIRPPRLPRPRPRPKAFPRP, for which the “shrunken log2 fold change” value is -0.122.
On to RRIRYRPPRLPRPRPRPIRWPRP, for which the “shrunken log2 fold change” value is -0.114.
For the sequence RRIRLRPPRLPRPRPRPLINPRP, the “shrunken log2 fold change” value is -0.519.
The same measure for RRIRMRPPRLPRPRPRPRDSPRP: 0.117; for RRIRPRPPRLPRPRPRPMSWPRP: 0.245; for RRIRTRPPRLPRPRPRPLGQPRP: -0.137.
The result for RRIRMRPPRLPRPRPRPAHPPRP reads 0.296.
The result for RRIRERPPRLPRPRPRPGIDPRP reads -0.14; that for RRIRYRPPRLPRPRPRPMDKPRP, -0.432.
In the case of RRIRKRPPRLPRPRPRPGMHPRP, the “shrunken log2 fold change” value stood at 0.213.
The result for RRIRIRPPRLPRPRPRPVECPRP reads 0.00902; that for RRIRHRPPRLPRPRPRPIDQPRP, 0.0834; that for RRIRQRPPRLPRPRPRPGNEPRP, 0.177.
The result for RRIRHRPPRLPRPRPRPKQCPRP reads -0.224; that for RRIRCRPPRLPRPRPRPEGWPRP, 0.855.
The result for RRIRKRPPRLPRPRPRPWAYPRP reads -0.228; that for RRIRDRPPRLPRPRPRPHHEPRP, 0.0131; that for RRIRGRPPRLPRPRPRPPEMPRP, 1.62.
As to RRIRCRPPRLPRPRPRPDTTPRP, the “shrunken log2 fold change” value was found to be 0.00602.
The result for RRIRDRPPRLPRPRPRPECKPRP reads 0.109.
Regarding RRIRKRPPRLPRPRPRPTREPRP, the “shrunken log2 fold change” value was 0.48.
For RRIRARPPRLPRPRPRPSSYPRP, the “shrunken log2 fold change” value was -0.342.
RRIRIRPPRLPRPRPRPRERPRP: the “shrunken log2 fold change” value came to 0.688.
For RRIRERPPRLPRPRPRPGESPRP, the “shrunken log2 fold change” value is -0.0304.
Consider RRIRGRPPRLPRPRPRPVEEPRP, for which the “shrunken log2 fold change” value turned out to be 0.843.
As to RRIRCRPPRLPRPRPRPELHPRP, the “shrunken log2 fold change” value came out at 0.0685.
The same measure for RRIRTRPPRLPRPRPRPHTFPRP: -0.431; for RRIRCRPPRLPRPRPRPINFPRP: -0.235.
The result for RRIRLRPPRLPRPRPRPTDPPRP reads 0.187; that for RRIRCRPPRLPRPRPRPFKQPRP, -0.0402.
Regarding RRIRRRPPRLPRPRPRPYKFPRP, the “shrunken log2 fold change” value is 0.0202.
The same measure for RRIRKRPPRLPRPRPRPAAIPRP: 0.255.
The result for RRIRTRPPRLPRPRPRPCMQPRP reads 1.86; that for RRIRIRPPRLPRPRPRPMMFPRP, -0.0225; that for RRIRDRPPRLPRPRPRPRQDPRP, 0.367.
As to RRIRYRPPRLPRPRPRPRLCPRP, the “shrunken log2 fold change” value was -0.0154.
The same measure for RRIRQRPPRLPRPRPRPHCDPRP: 0.0241.
On to RRIRWRPPRLPRPRPRPNGKPRP, for which the “shrunken log2 fold change” value worked out at 0.123.
The result for RRIRCRPPRLPRPRPRPSLTPRP reads -0.538.
Take RRIRYRPPRLPRPRPRPILCPRP: the “shrunken log2 fold change” value is -0.0389.
Consider RRIRKRPPRLPRPRPRPAKHPRP, for which the “shrunken log2 fold change” value was 0.0854.
The result for RRIRRRPPRLPRPRPRPKPEPRP reads 0.489.
The result for RRIRYRPPRLPRPRPRPGDDPRP reads -0.286; that for RRIRFRPPRLPRPRPRPIFVPRP, 0.108.
RRIRQRPPRLPRPRPRPPHTPRP: the “shrunken log2 fold change” value was determined as 1.08.
The result for RRIRSRPPRLPRPRPRPVFYPRP reads -0.266; that for RRIRGRPPRLPRPRPRPHWVPRP, 0.107; that for RRIRMRPPRLPRPRPRPTQSPRP, 1.03.
RRIRWRPPRLPRPRPRPYPTPRP: the “shrunken log2 fold change” value is -0.281.
The same measure for RRIRCRPPRLPRPRPRPNNPPRP: -0.681; for RRIRDRPPRLPRPRPRPMQFPRP: -0.0264.
Regarding RRIRARPPRLPRPRPRPGPYPRP, the “shrunken log2 fold change” value stood at 1.85.
The result for RRIRARPPRLPRPRPRPPHCPRP reads 0.521.
The result for RRIRYRPPRLPRPRPRPKIGPRP reads -0.177.
The same measure for RRIRSRPPRLPRPRPRPHYPPRP: -0.615.
As for RRIRMRPPRLPRPRPRPITYPRP, the “shrunken log2 fold change” value is -0.0199.
Consider RRIRPRPPRLPRPRPRPPGVPRP, for which the “shrunken log2 fold change” value was determined as 0.517.
In the case of RRIRRRPPRLPRPRPRPATQPRP, the “shrunken log2 fold change” value was 0.691.
The same measure for RRIRMRPPRLPRPRPRPAKYPRP: -0.111.
For RRIRMRPPRLPRPRPRPFGRPRP, the “shrunken log2 fold change” value is -0.00674.
The result for RRIRDRPPRLPRPRPRPTHFPRP reads -0.0613.
Take RRIRQRPPRLPRPRPRPLEAPRP: the “shrunken log2 fold change” value was determined as 0.225.
The result for RRIRWRPPRLPRPRPRPTQQPRP reads -0.0891.
The same measure for RRIRHRPPRLPRPRPRPDYSPRP: -0.657; for RRIRRRPPRLPRPRPRPFCRPRP: 0.551.
As for RRIRHRPPRLPRPRPRPMCVPRP, the “shrunken log2 fold change” value was -0.192.
For the sequence RRIRMRPPRLPRPRPRPTWVPRP, the “shrunken log2 fold change” value is 0.496.
